Experimental data published in PMC10397247.
One block for each binder: values may come before it.

Assays:
P9A-bN = biological target: T1, P9A-bN; assay: two-hybrid library CCNG1;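 note: natural log of median RNA to DNA barcode read ratio; higher means stronger binding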
T1 chain: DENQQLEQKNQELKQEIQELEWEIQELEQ

P8A-bN = biological target: T2, P8A-bN; assay: two-hybrid library CCNG1;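 note: natural log of median RNA to DNA barcode read ratio; higher means stronger binding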
T2 chain: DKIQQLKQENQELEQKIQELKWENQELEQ

P9mS = biological target: T3, P9mS; assay: two-hybrid library CCNG1;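 note: natural log of median RNA to DNA barcode read ratio; higher means stronger binding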
T3 chain: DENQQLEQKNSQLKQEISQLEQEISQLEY

O4 = biological target: T4, O4; assay: two-hybrid library CC0; conditions: mean of both orientations;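 note: natural log of median RNA to DNA barcode read ratio; higher means stronger binding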
T4 chain: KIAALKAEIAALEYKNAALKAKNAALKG

O7 = biological target: T5, O7; assay: two-hybrid library CC0; conditions: mean of both orientations;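 note: natural log of median RNA to DNA barcode read ratio; higher means stronger binding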
T5 chain: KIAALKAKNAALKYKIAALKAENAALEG

O5 = biological target: T6, O5; assay: two-hybrid library CC0; conditions: mean of both orientations;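 note: natural log of median RNA to DNA barcode read ratio; higher means stronger binding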
T6 chain: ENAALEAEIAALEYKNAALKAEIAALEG

O3 = biological target: T7, O3; assay: two-hybrid library CC0; conditions: mean of both orientations
T7 chain: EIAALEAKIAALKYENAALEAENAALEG

O9 = biological target: T8, O9; assay: two-hybrid library CC0; conditions: mean of both orientations
T8 chain: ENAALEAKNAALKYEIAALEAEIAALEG

O6 = biological target: T9, O6; assay: two-hybrid library CC0; conditions: mean of both orientations
T9 chain: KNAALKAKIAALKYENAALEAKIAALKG

O8 = biological target: T10, O8; assay: two-hybrid library CC0; conditions: mean of both orientations
T10 chain: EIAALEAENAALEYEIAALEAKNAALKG

P9-AA = biological target: T11, P9-AA; assay: two-hybrid library CCmax; conditions: mean of both orientations
T11 chain: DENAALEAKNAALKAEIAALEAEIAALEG

O3-AA = biological target: T12, O3-AA; assay: two-hybrid library CCmax
T12 chain: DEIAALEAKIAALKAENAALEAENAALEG

O4-AA = biological target: T13, O4-AA; assay: two-hybrid library CCmax; conditions: mean of both orientations
T13 chain: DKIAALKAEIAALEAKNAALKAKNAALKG

O5-AA = biological target: T14, O5-AA; assay: two-hybrid library CCmax; conditions: mean of both orientations
T14 chain: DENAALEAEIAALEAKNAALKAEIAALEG

O8-AA = biological target: T15, O8-AA; assay: two-hybrid library CCmax; conditions: mean of both orientations
T15 chain: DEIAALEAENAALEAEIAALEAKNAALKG

O7-AA = biological target: T16, O7-AA; assay: two-hybrid library CCmax; conditions: mean of both orientations
T16 chain: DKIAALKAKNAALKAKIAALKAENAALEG

P10-AA = biological target: T17, P10-AA; assay: two-hybrid library CCmax; conditions: mean of both orientations
T17 chain: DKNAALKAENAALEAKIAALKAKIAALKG

O6-AA = biological target: T18, O6-AA; assay: two-hybrid library CCmax; conditions: mean of both orientations
T18 chain: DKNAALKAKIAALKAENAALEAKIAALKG

interaction score (P9A-bN): -1.47 | interaction score (P8A-bN): -1.84
Binder: DKIQQLKQENQELEQKIQELKWENQELEQ [P8A-bN]

interaction score (P9mS): -1.32
Binder: DENQQLEQKNSQLKQEISQLEQEISQLEY [P9mS]

Binder: EIAALEAKIAALKYENAALEAENAALEG [O3]
interaction score (O4): 1.48 | interaction score (O7): -2.77 | interaction score (O5): -2.78 | interaction score (O3): -2.75 | interaction score (O9): -2.71 | interaction score (O6): -2.66 | interaction score (O8): -2.58

interaction score (P9-AA): -0.88 | interaction score (O3-AA): -0.811 | interaction score (O4-AA): 1.99 | interaction score (O5-AA): -1.22 | interaction score (O8-AA): -1.37 | interaction score (O7-AA): -1.4 | interaction score (P10-AA): -1.06 | interaction score (O6-AA): -0.902
Binder: DEIAALEAKIAALKAENAALEAENAALEG [O3-AA]
